Laboratory results published in publication PMC12102759 (2025).

B1: RNF115 peptide 67-82 (E3 ubiquitin-protein ligase RNF115), 16-mer library wild type / MDM2 SWIB (MDM2 SWIB/MDM2 domain, residues 17-125) (parent complex)
chain 1: TTTHFAELWGHLDHTM
chain 2: SQIPASEQETLVRPKPLLLKLLKSVGAQKDTYTMKEVLFYLGQYIMTKRLYDEKQQHIVYCSNDLLGDLFGVPSFSVKEHRKIYTMIYRNLVVVNQQESSDSGTSVSEN

Variants of: B1
Test: proteomic peptide phage display deep mutational scan (ProP-PD DMS): M13 P8 16-mer library selected against immobilised GST-tagged bait for four days (rounds), NGS of the eluted pools per day and pseudo-replica; bait immobilised on MaxiSorp plates (10 µg), library pre-cleared on GST, 2 h binding at 4 °C, five washes; one round per day, days 1-4; value from days 2 and 3

| Variant | screen value |
| --- | --- |
| chain 1 D13H | 0.000247 average fractional NGS count over selection days 2 and 3 (reads of this peptide / all reads for the bait, averaged over … |
| chain 1 D13P | 0.00074 average fractional NGS count over selection days 2 and 3 (reads of this peptide / all reads for the bait, averaged over … |
| chain 1 D13F | 0.00274 average fractional NGS count over selection days 2 and 3 (reads of this peptide / all reads for the bait, averaged over … |
| chain 1 D13V | 0.0143 average fractional NGS count over selection days 2 and 3 (reads of this peptide / all reads for the bait, averaged over … |
| chain 1 D13N | 0.000525 average fractional NGS count over selection days 2 and 3 (reads of this peptide / all reads for the bait, averaged over … |
| chain 1 D13R | 0.000392 average fractional NGS count over selection days 2 and 3 (reads of this peptide / all reads for the bait, averaged over … |
| chain 1 D13Q | 0.00218 average fractional NGS count over selection days 2 and 3 (reads of this peptide / all reads for the bait, averaged over … |
| chain 1 D13E | 0.000754 average fractional NGS count over selection days 2 and 3 (reads of this peptide / all reads for the bait, averaged over … |
| chain 1 D13W | 0.000615 average fractional NGS count over selection days 2 and 3 (reads of this peptide / all reads for the bait, averaged over … |
| chain 1 D13I | 0.00102 average fractional NGS count over selection days 2 and 3 (reads of this peptide / all reads for the bait, averaged over … |
| chain 1 D13G | 0.00549 average fractional NGS count over selection days 2 and 3 (reads of this peptide / all reads for the bait, averaged over … |
| chain 1 D13Y | 0.00726 average fractional NGS count over selection days 2 and 3 (reads of this peptide / all reads for the bait, averaged over … |
| chain 1 D13S | 0.00426 average fractional NGS count over selection days 2 and 3 (reads of this peptide / all reads for the bait, averaged over … |
| chain 1 D13T | 0.0095 average fractional NGS count over selection days 2 and 3 (reads of this peptide / all reads for the bait, averaged over … |
| chain 1 D13L | 0.00105 average fractional NGS count over selection days 2 and 3 (reads of this peptide / all reads for the bait, averaged over … |
| chain 1 L12A | 0.000185 average fractional NGS count over selection days 2 and 3 (reads of this peptide / all reads for the bait, averaged over … |
| chain 1 L12N | 0.000651 average fractional NGS count over selection days 2 and 3 (reads of this peptide / all reads for the bait, averaged over … |
| chain 1 L12M | 0.000189 average fractional NGS count over selection days 2 and 3 (reads of this peptide / all reads for the bait, averaged over … |
| chain 1 L12I | 0.000166 average fractional NGS count over selection days 2 and 3 (reads of this peptide / all reads for the bait, averaged over … |
| chain 1 H11A | 0.0021 average fractional NGS count over selection days 2 and 3 (reads of this peptide / all reads for the bait, averaged over … |
| chain 1 H11R | 0.000902 average fractional NGS count over selection days 2 and 3 (reads of this peptide / all reads for the bait, averaged over … |
| chain 1 H11D | 0.00024 average fractional NGS count over selection days 2 and 3 (reads of this peptide / all reads for the bait, averaged over … |
| chain 1 H11E | 0.000714 average fractional NGS count over selection days 2 and 3 (reads of this peptide / all reads for the bait, averaged over … |
| chain 1 H11L | 0.00334 average fractional NGS count over selection days 2 and 3 (reads of this peptide / all reads for the bait, averaged over … |
| chain 1 H11K | 0.000921 average fractional NGS count over selection days 2 and 3 (reads of this peptide / all reads for the bait, averaged over … |

| Variant | screen value |
| --- | --- |
| chain 1 H11I | 0.000552 average fractional NGS count over selection days 2 and 3 (reads of this peptide / all reads for the bait, averaged over … |
| chain 1 H11V | 0.00167 average fractional NGS count over selection days 2 and 3 (reads of this peptide / all reads for the bait, averaged over … |
| chain 1 H11W | 0.00259 average fractional NGS count over selection days 2 and 3 (reads of this peptide / all reads for the bait, averaged over … |
| chain 1 H11F | 0.00626 average fractional NGS count over selection days 2 and 3 (reads of this peptide / all reads for the bait, averaged over … |
| chain 1 H11M | 0.00257 average fractional NGS count over selection days 2 and 3 (reads of this peptide / all reads for the bait, averaged over … |
| chain 1 H11Y | 0.00946 average fractional NGS count over selection days 2 and 3 (reads of this peptide / all reads for the bait, averaged over … |
| chain 1 H11N | 0.000176 average fractional NGS count over selection days 2 and 3 (reads of this peptide / all reads for the bait, averaged over … |
| chain 1 H11Q | 0.00312 average fractional NGS count over selection days 2 and 3 (reads of this peptide / all reads for the bait, averaged over … |
| chain 1 H11T | 0.00102 average fractional NGS count over selection days 2 and 3 (reads of this peptide / all reads for the bait, averaged over … |
| chain 1 H11S | 0.000392 average fractional NGS count over selection days 2 and 3 (reads of this peptide / all reads for the bait, averaged over … |
| chain 1 T3Q | 0.000196 average fractional NGS count over selection days 2 and 3 (reads of this peptide / all reads for the bait, averaged over … |
| chain 1 T3E | 0.00168 average fractional NGS count over selection days 2 and 3 (reads of this peptide / all reads for the bait, averaged over … |
| chain 1 T3W | 0.00105 average fractional NGS count over selection days 2 and 3 (reads of this peptide / all reads for the bait, averaged over … |
| chain 1 T3M | 0.000962 average fractional NGS count over selection days 2 and 3 (reads of this peptide / all reads for the bait, averaged over … |
| chain 1 T3Y | 0.000753 average fractional NGS count over selection days 2 and 3 (reads of this peptide / all reads for the bait, averaged over … |
| chain 1 T3A | 0.000681 average fractional NGS count over selection days 2 and 3 (reads of this peptide / all reads for the bait, averaged over … |
| chain 1 T3V | 0.000622 average fractional NGS count over selection days 2 and 3 (reads of this peptide / all reads for the bait, averaged over … |
| chain 1 T3S | 0.000431 average fractional NGS count over selection days 2 and 3 (reads of this peptide / all reads for the bait, averaged over … |
| chain 1 T3D | 0.000232 average fractional NGS count over selection days 2 and 3 (reads of this peptide / all reads for the bait, averaged over … |
| chain 1 T3L | 0.00187 average fractional NGS count over selection days 2 and 3 (reads of this peptide / all reads for the bait, averaged over … |
| chain 1 T3H | 0.000104 average fractional NGS count over selection days 2 and 3 (reads of this peptide / all reads for the bait, averaged over … |
| chain 1 T3G | 0.000204 average fractional NGS count over selection days 2 and 3 (reads of this peptide / all reads for the bait, averaged over … |
| chain 1 T3P | 0.000694 average fractional NGS count over selection days 2 and 3 (reads of this peptide / all reads for the bait, averaged over … |
| chain 1 T3I | 0.00069 average fractional NGS count over selection days 2 and 3 (reads of this peptide / all reads for the bait, averaged over … |
| chain 1 T3F | 0.000452 average fractional NGS count over selection days 2 and 3 (reads of this peptide / all reads for the bait, averaged over … |

| Variant | screen value |
| --- | --- |
| chain 1 M16A | 9.05e-05 average fractional NGS count over selection days 2 and 3 (reads of this peptide / all reads for the bait, averaged over … |
| chain 1 M16F | 0.000243 average fractional NGS count over selection days 2 and 3 (reads of this peptide / all reads for the bait, averaged over … |
| chain 1 M16Y | 0.000534 average fractional NGS count over selection days 2 and 3 (reads of this peptide / all reads for the bait, averaged over … |
| chain 1 M16V | 0.00172 average fractional NGS count over selection days 2 and 3 (reads of this peptide / all reads for the bait, averaged over … |
| chain 1 M16W | 0.000718 average fractional NGS count over selection days 2 and 3 (reads of this peptide / all reads for the bait, averaged over … |
| chain 1 M16E | 0.000437 average fractional NGS count over selection days 2 and 3 (reads of this peptide / all reads for the bait, averaged over … |
| chain 1 M16L | 0.0016 average fractional NGS count over selection days 2 and 3 (reads of this peptide / all reads for the bait, averaged over … |
| chain 1 M16P | 0.000227 average fractional NGS count over selection days 2 and 3 (reads of this peptide / all reads for the bait, averaged over … |
| chain 1 M16T | 0.00044 average fractional NGS count over selection days 2 and 3 (reads of this peptide / all reads for the bait, averaged over … |
| chain 1 M16Q | 0.000223 average fractional NGS count over selection days 2 and 3 (reads of this peptide / all reads for the bait, averaged over … |
| chain 1 M16I | 0.000492 average fractional NGS count over selection days 2 and 3 (reads of this peptide / all reads for the bait, averaged over … |
| chain 1 T15D | 0.000245 average fractional NGS count over selection days 2 and 3 (reads of this peptide / all reads for the bait, averaged over … |
| chain 1 T15A | 0.000886 average fractional NGS count over selection days 2 and 3 (reads of this peptide / all reads for the bait, averaged over … |
| chain 1 T15G | 0.0009 average fractional NGS count over selection days 2 and 3 (reads of this peptide / all reads for the bait, averaged over … |
| chain 1 T15Y | 0.00205 average fractional NGS count over selection days 2 and 3 (reads of this peptide / all reads for the bait, averaged over … |
| chain 1 T15W | 0.00561 average fractional NGS count over selection days 2 and 3 (reads of this peptide / all reads for the bait, averaged over … |
| chain 1 T15M | 0.00385 average fractional NGS count over selection days 2 and 3 (reads of this peptide / all reads for the bait, averaged over … |
| chain 1 T15L | 7.38e-05 average fractional NGS count over selection days 2 and 3 (reads of this peptide / all reads for the bait, averaged over … |
| chain 1 T15V | 0.00407 average fractional NGS count over selection days 2 and 3 (reads of this peptide / all reads for the bait, averaged over … |
| chain 1 T15S | 0.000189 average fractional NGS count over selection days 2 and 3 (reads of this peptide / all reads for the bait, averaged over … |
| chain 1 T15H | 0.000116 average fractional NGS count over selection days 2 and 3 (reads of this peptide / all reads for the bait, averaged over … |
| chain 1 T15Q | 0.000103 average fractional NGS count over selection days 2 and 3 (reads of this peptide / all reads for the bait, averaged over … |
| chain 1 T15F | 0.00191 average fractional NGS count over selection days 2 and 3 (reads of this peptide / all reads for the bait, averaged over … |
| chain 1 E7I | 0.000492 average fractional NGS count over selection days 2 and 3 (reads of this peptide / all reads for the bait, averaged over … |
| chain 1 E7D | 0.000661 average fractional NGS count over selection days 2 and 3 (reads of this peptide / all reads for the bait, averaged over … |
